The source of these data is paper doi:10.1101/2022.12.01.518643 (bioRxiv, 2022).

By IC50 is commonly meant the concentration needed to halve the response being measured.

In assay [1] the target is soluble DP4 (HLA-DPA1*01:03/DPB1*04:01) (human). Put plainly: fluorescence polarisation. A general note: In fluorescence polarisation assays a small probe gives low polarisation when free and higher when bound to something large.
Assay [2] shares this target. Put plainly: fluorescence polarisation. This is another data set of the same source.

A value given as a limit tells only on which side of the number the result lay.

In turn, “OC43 hemagglutinin esterase peptide 259–273 (P1)” gave an IC50 in assay [1] of under 1000 nM.
The molecule RSFIEDLLFNKVTLA (modifications not checked) [SARS-CoV-2 homolog of the OC43 peptide P4] returned a fold change of binding against the OC43 peptide P4 in assay [2] of 10 fold.
